Legend:
[1] = biological target: 30SΔS1 ribosomal subunit (rS1-depleted);ribosomal protein rS1 (Escherichia coli JE28;Vibrio vulnificus CMCP6) (UniProt A0A3Q0L6Y6); test: MST; settings: MST: 25 mM K-phosphate pH 7.2, 150 mM KCl, 5 mM MgCl2, 5 mM DTT, 0.4 mg/mL BSA, 0.05% Tween20, RNasin, 25 °C, EMSA: 25 mM K-phosphate pH 7.2, 75 mM KCl
[2] = biological target: rS1-depleted 30S ribosomes from E. coli (E. coli (endogenous in strain JE28)) (UniProt P0A7V0); test: MST; labeled 30SΔS1 (30 nM) with a 1:1 dilution series of rS1 (3 µM); 30 min at 25 °C; 25 mM potassium phosphate pH 7.2, 150 mM KCl, 5 mM MgCl2, 5 mM DTT, 0.4 mg/mL BSA, 0.05% Tween20, RNasin
ribosomal protein rS1 = ribosomal protein rS1 (Vibrio vulnificus CMCP6, UniProt A0A3Q0L6Y6 1-556); test: NMR; holo (adenine); 1:1 rS1 opens P4 and P5 by 50%; MST: 25 mM K-phosphate pH 7.2, 150 mM KCl, 5 mM MgCl2, 5 mM DTT, 0.4 mg/mL BSA, 0.05% Tween20, RNasin, 25 °C; EMSA: 25 mM K-phosphate pH 7.2, 75 mM KCl, 5 mM DTT, on ice; settings: protein: recombinant; tags: N-terminal His-thioredoxin tag, cleaved by TEV; label: 13C,15N (NMR); riboswitch fold with helices P1-P5

Work on “GCUUCAUAUAAUCCUAAUGAUAUGGUUUGGGAGUUUCUACCAAGAGCCUUAAACUCUUGAUUAUGAAGUCUGUCGCUUUAUCCGAAAUUUUAUAAAGAGAAGACUCAUGAAUUACUUUGACCUGCCG [ASW14-140, Cy5-labeled add riboswitch]” yielded a Kd [1] of 60 nM.

In the case of “ribosomal protein rS1 from Vibrio vulnificus (from UniProt A0A3Q0L6Y6 1-556) (natural protein)”, the Kd [2] is reported as 170 nM.

B1: ASW14-140, add riboswitch (structured_RNA)
RNA: GCUUCAUAUAAUCCUAAUGAUAUGGUUUGGGAGUUUCUACCAAGAGCCUUAAACUCUUGAUUAUGAAGUCUGUCGCUUUAUCCGAAAUUUUAUAAAGAGAAGACUCAUGAAUUACUUUGACCUGCCG
B1: binds (ribosomal protein rS1).
